Reference: article PMC4760936 (PLoS ONE, 2016)

Molecular target: staphylococcal enterotoxin B (Staphylococcus aureus, strain , UniProt P01552)
Assay: SPR; ProteOn XPR36; […] (10 mM acetate pH 5.0); […]; Langmuir model
Details: both partners purified

Sequence of staphylococcal enterotoxin B (P01552 28-266): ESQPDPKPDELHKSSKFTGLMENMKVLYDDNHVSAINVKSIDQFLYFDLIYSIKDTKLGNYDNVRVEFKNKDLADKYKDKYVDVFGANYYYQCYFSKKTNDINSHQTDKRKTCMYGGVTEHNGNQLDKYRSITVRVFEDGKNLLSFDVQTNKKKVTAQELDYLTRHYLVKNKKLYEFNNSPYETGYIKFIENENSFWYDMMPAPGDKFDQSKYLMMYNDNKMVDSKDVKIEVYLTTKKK

Binder	Kd	koff	kon
sdAb E2 (VHH, also called Class A exemplar) VHH: EVQLQASGGGLVQAGGSLRLTCAASGRTFGSYAMGWFRQAPGKEREFVAAISWSGGDTYADSVKGRFTISRDNAKNTVYLQMNSLAPEDTAVYSCAAVGARYYISKDAKDYGYWGQGTQVTVSS	270 pM	0.0035 s⁻¹	1.3e+07 M⁻¹ s⁻¹
sdAb D9 (VHH, also called Class C exemplar) VHH: EVQLQASGGGLAQAGDSLRLSCAASIRTFGSYAMGWFRQAPGKEREFVAAISWSGGDTYADSAKGRFTISRDNAKNMMYLQMNSLAPEDTAVYFCAIVEAKYYISKDARDYGYWGQGTQVFVSS	110 pM	0.00028 s⁻¹	2.5e+06 M⁻¹ s⁻¹
